Test results taken from publication PMC8058416, “Coordinated and High-Level Expression of Biosynthetic Pathway Genes Is Responsible for the Production of a Major Floral Scent Compound Methyl Benzoate in Hedychium coronarium” (Frontiers in Plant Science, 2021).

How the values were obtained:
[1] = substrate: O=C(O)c1ccccc1; assay: GC-MS (SPME) of methyl benzoate formed, Michaelis-Menten fit; format: biochemical, Hedychium coronarium; conditions: SAM co-substrate (2 mM in standard assay), 100 mM KCl
[2] = substrate: O=C(O)c1ccccc1O; assay: GC-MS (SPME) of methyl salicylate formed, Michaelis-Menten fit; format: biochemical, Hedychium coronarium; conditions: SAM co-substrate (2 mM in standard assay), 100 mM KCl; optimal reaction condition

B1: HcBSMT1 (Hedychium coronarium) (protein)
chain: MLPNTTIMEGEMSLKVEHALHMVGGTGETSYVANSRLQEKAIHQTKSLLAIAVEETYKALHSDQMVVVDLGCSSGPNTLLMLSHVLSVATKLPRRMELQFFLNDLPGNDFNCLFQSLEGFKKRLEGEIEGDLLVPYYVAGVAGSFYGRLFPRASVHLFHSSFCLMWLSQVPEGLKIEHGVPLNKGNIYWTETSLAKVEKAYQEQFQKDFSTFLKLRHTELNVGGRMVLVFVGRRKRTPGNGDFVHLYGLLGEALNSMVLEGIIQEEKVDTFNLPIYGASFEEVESVIHNEGVFDLDRAEIFESSWDPFDDSKDDIYAIPNYMRSGKNVANYIRAVVEPLIVHQFGTVILDDLFARYAHLVSKHLLKKKANHTILVFALKKKA
notes: full coding region in pET30a (EcoRI/NotI), E. coli Rosetta (DE3), Ni-NTA partially purified, His tag; 382 residues, 43 kDa predicted; Phe162, Val231, Tyr247
In the case of B1, the Km ([1]; optimal condition (25 °C, optimum pH 6.0)) is reported as 1456.17 ± 163.13 µM.

B2: HcBSMT2 (Hedychium coronarium) (protein)
chain: MGLKVEQALHMVGGSGETSYATNSRLQEKAIYRTKPVLATTIEEMYKGLLPEHMVVVDLGCSSGSNTFIVVSQVLDIIVELRRMMEMKKPLEVQFFLNDLPGNDFNYVFQSLDKFKNKVEEESKGELLVPYYVVGVAGSFYGRLFPCASVHFFHSSYCLMWLSQVPEELENDQGVSLNKGNIYWTETSSSQVEKAYREQYKKDFLTFLRSRYIELNIGGGMMLTFLGRRKRTPGHGDLCHLWRLLAEALNSMVLEEIIPEEKVSTFNLPIYGPSLEEVKSIIHHEGLFDLDRVEIFESSWDPFDDSGDDSFDLSNYTKSAKNVADCIRAVVEPLIVHQFGDVILDDLFTRYAQNVLKHLLKEKANHTILVIALKKRV
notes: full coding region in pET30a (EcoRI/NotI), E. coli Rosetta (DE3), Ni-NTA partially purified, His tag; 377 residues, 43 kDa predicted; Tyr157, Leu226, Trp242
B2 gave a Km ([1]; optimal condition (25 °C, optimum pH 6.5)) of 87.73 ± 7.03 µM and a Km [2] of 26.73 ± 3.88 µM.
